Measured values: US20110086006
Like-named read-outs stand apart in the source and are kept apart here.

T1: internally quenched fluorogenic peptide (FRET substrate), Ac-DED(EDANS)EEαAbuψ[COO]ASK(DABCYL)-NH2
T1 chain: DEDEEXASK

T2: KK4A peptide (KKGSVVIVGRIVLSGK), central region of the NS4A cofactor from genotype 1a with lysine residues added for improved solubility
T2 chain: KKGSVVIVGRIVLSGK


Columns and labels:
[1] = system: internally quenched fluorogenic peptide (FRET substrate), Ac-DED(EDANS)EEαAbuψ[COO]ASK(DABCYL)-NH2
[2] = system: KK4A peptide (KKGSVVIVGRIVLSGK), central region of the NS4A cofactor from genotype 1a with lysine residues added for improved solubility
[3] = target: T1, internally quenched fluorogenic peptide …
[4] = target: T2, KK4A peptide (KKGSVVIVGRIVLSGK), …

Molecule	Kcat [1] [s⁻¹]	Kcat/Km [1] [M⁻¹ s⁻¹]	Km [1] [µM]	kinetic parameters for the FRET substrate [2]	Kcat [3] [s⁻¹]	Kcat/Km [3] [M⁻¹ s⁻¹]	Km [3] [µM]	kcat [3] [s⁻¹]	kcat/Km [3] [M⁻¹ s⁻¹]	kinetic parameters for the FRET substrate [4]
wild type HCV NS3 serine protease domain, genotype 1a	1.2	897000	1.3	Although the NS4A peptide co-factor was from HCV genotype 1a, no discernable difference in the kinetic parameters was observed	–	–	–	–	–	–
D168V mutant HCV NS3 serine protease domain, genotype 1b (protein) APITAYSQQTRGLLGCIITSLTGRDRNQVEGEVQVVSTATQSFLATCVNGVCWTVYHGAGSKTLAGPKGPITQMYTNVDQDLVGWQAPPGARSLTPCTCGSSDLYLVTRHADVIPVRRRGDSRGSLLSPRPVSYLKGSSGGPLLCPSGHAVGIFRAAVCTRGVAKAVVFVPVESMETTMRSHHHHHH	–	–	–	–	0.6	498000	1.2	–	–	–
A156S mutant HCV NS3 serine protease domain, genotype 1b (protein) APITAYSQQTRGLLGCIITSLTGRDRNQVEGEVQVVSTATQSFLATCVNGVCWTVYHGAGSKTLAGPKGPITQMYTNVDQDLVGWQAPPGARSLTPCTCGSSDLYLVTRHADVIPVRRRGDSRGSLLSPRPVSYLKGSSGGPLLCPSGHAVGIFRSAVCTRGVAKAVDFVPVESMETTMRSHHHHHH	–	–	–	–	0.6	664000	0.9	–	–	–
D168A mutant HCV NS3 serine protease domain, genotype 1b (protein) APITAYSQQTRGLLGCIITSLTGRDRNQVEGEVQVVSTATQSFLATCVNGVCWTVYHGAGSKTLAGPKGPITQMYTNVDQDLVGWQAPPGARSLTPCTCGSSDLYLVTRHADVIPVRRRGDSRGSLLSPRPVSYLKGSSGGPLLCPSGHAVGIFRAAVCTRGVAKAVAFVPVESMETTMRSHHHHHH	–	–	–	–	0.3	150000	2	–	–	–
A156V mutant HCV NS3 serine protease domain, Con1 strain (protein) APITAYSQQTRGLLGCIITSLTGRDRNQVEGEVQVVSTATQSFLATCVNGVCWTVYHGAGSKTLAGPKGPITQMYTNVDQDLVGWQAPPGARSLTPCTCGSSDLYLVTRHADVIPVRRRGDSRGSLLSPRPVSYLKGSSGGPLLCPSGHAVGIFRVAVCTRGVAKAVDFVPVESMETTMRSHHHHHH	–	–	–	–	–	–	2.6	0.6	234000	–
wild type HCV NS3 serine protease domain, genotype 1b (Con1), residues Ala1-Ser181 with a C-terminal hexa-histidine tag (protein) APITAYSQQTRGLLGCIITSLTGRDRNQVEGEVQVVSTATQSFLATCVNGVCWTVYHGAGSKTLAGPKGPITQMYTNVDQDLVGWQAPPGARSLTPCTCGSSDLYLVTRHADVIPVRRRGDSRGSLLSPRPVSYLKGSSGGPLLCPSGHAVGIFRAAVCTRGVAKAVDFVPVESMETTMRSHHHHHH	–	–	–	–	1	947000	1.1	1	947000	Although the NS4A peptide co-factor was from HCV genotype 1a, no discernable difference in the kinetic parameters was observed
A156T mutant HCV NS3 serine protease domain, Con1 strain (protein) APITAYSQQTRGLLGCIITSLTGRDRNQVEGEVQVVSTATQSFLATCVNGVCWTVYHGAGSKTLAGPKGPITQMYTNVDQDLVGWQAPPGARSLTPCTCGSSDLYLVTRHADVIPVRRRGDSRGSLLSPRPVSYLKGSSGGPLLCPSGHAVGIFRTAVCTRGVAKAVDFVPVESMETTMRSHHHHHH	–	–	–	–	–	–	1.3	0.2	136000	–
